From PMC6921899, “AtDAT1 Is a Key Enzyme of D-Amino Acid Stimulated Ethylene Production in Arabidopsis thaliana” (Frontiers in Plant Science, 2019)

Substrate: CSCC[C@@H](N)C(=O)O
Assay: D-Ala formation by UPLC-MS after derivatization; Hofstee linearization
Format: biochemical, Arabidopsis thaliana
Settings: pyruvate 50 mM as amino acceptor, standard assay: potassium phosphate 100 mM pH 8, PLP 50 µM, 37 °C

B1: AtDAT1(Col-0) (Arabidopsis thaliana) (protein)
chain: MAGLSLEFTVNTWNLRSLSQVPCPLRHGFRFPRRLTRRRTILMCSDSSSQSWNVPVLSSYEVGERLKLARGGQQFLAMYSSVVDGITTDPAAMVLPLDDHMVHRGHGVFDTALIINGYLYELDQHLDRILRSASMAKIPLPFDRETIKRILIQTVSVSGCRDGSLRYWLSAGPGDFLLSPSQCLKPTLYAIVIKTNFAINPIGVKVVTSSIPIKPPEFATVKSVNYLPNVLSQMEAEAKGAYAGIWVCKDGFIAEGPNMNVAFVVNGGKELVMPRFDNVLSGCTAKRTLTLAEQLVSKGILKTVKVMDVTVEDGKKADEMMLIGSGIPIRPVIQWDEEFIGEGKEGPIAKALLDLLLEDMRSGPPSVRVLVPY
notes: N-terminal GST tag and C-terminal His tag (pGEX-2TM-GW); E. coli BL21(DE3) RIL; Ni-NTA purified
Km: 17.4 mM
